US20240124585A1 (SUTRO BIOPHARMA, published 2024)
Substitutions are numbered along the chain they refer to.

T1: cynomolgus CD3 epsilon (cynomolgus monkey, UniProt Q95LI5 22-117, limits assumed)
T1 construct: Recombinant protein; also called cyno CD3E
T1 sequence: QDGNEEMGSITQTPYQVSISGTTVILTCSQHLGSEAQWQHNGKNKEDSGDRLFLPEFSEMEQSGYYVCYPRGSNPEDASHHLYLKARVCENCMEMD

B1: 2037-B10-Lc9 (antibody, V domains shown)
VH: not shown
VL: DTQVTQSPSLSASVGDRVTITCGSSTGAVTSGYYPNWLQQKPGQAPRGLIGGTKFLAPGVPSRFSGSLLGGKAALTISSLQPEDFATYYCALWYSNRWVFGGGTKVEIKR
notes: human IgG1, kappa; also called Kappa Lc9
B2: 2037-B10-Lc10 (antibody, V domains shown)
VH: not shown
VL: B1 VL with T87E
notes: human IgG1, kappa; also called Kappa Lc10
B3: 2037-B10-Lc6 (antibody)
heavy: not shown
light: DIQMTQSPSSLSASVGDRVTITCGSSTGAVTSGYYPNWLQQKPGQAPRGLIGGTKFLAPGVPSRFSGSLSGGKATLTISSLQPEDFATYYCALWYSNRWVFGGGTKVEIKRTVAAPSVFIFPPSDEQLKSGTASVVCLLNNFYPREAKVQWKVDNALQSGNSQESVTEQDSKDSTYSLSSTLTLSKADYEKHKVYACEVTHQGLSSPVTKSFNRGEC
notes: human IgG1, kappa; also called Kappa Lc6; Parent HC + Kappa Lc6
B4: SRP2037-B10 (antibody, V domains shown)
VH: not shown
VL: QTVVTQEPSLTVSPGGTVTLTCGSSTGAVTSGYYPNWLQQKPGQAPRGLIGGTKFLAPGTPARFSGSLLGGKAALTLSGVQPEDEAEYYCALWYSNRWVFGGGTQLTVTG
notes: human IgG1, lambda; also called 2037-B10 WT; 2037-B10 wt LC (lambda)
B5: 2037-B10-Lc5 (antibody)
heavy: not shown
light: DTQVTQSPSLSASVGDRVTITCGSSTGAVTSGYYPNWLQQKPGQAPRGLIGGTKFLAPGVPSRFSGSGSGTDFTLTISSLQPEDFATYYCALWYSNRWVFGGGTKVEIKRTVAAPSVFIFPPSDEQLKSGTASVVCLLNNFYPREAKVQWKVDNALQSGNSQESVTEQDSKDSTYSLSSTLTLSKADYEKHKVYACEVTHQGLSSPVTKSFNRGEC
notes: human IgG1, kappa; also called Kappa Lc5; Parent HC + Kappa Lc5
B6: Mouse SP34 (antibody, V domains shown)
VH: EVQLVESGGGLVQPKGSLKLSCAASGFTFNTYAMNWVRQAPGKGLEWVARIRSKYNNYATYYADSVKDRFTISRDDSQSILYLQMNNLKTEDTAMYYCVRHGNFGNSYVSWFAYWGQGTLVTVSA
VL: QAVVTQESALTTSPGETVTLTCRSSTGAVTTSNYANWVQEKPDHLFTGLIGGTNKRAPGVPARFSGSLIGDKAALTITGAQTEDEAIYFCALWYSNLWVFGGGTKLTVL
notes: also called SP34 mouse monoclonal antibody; MSP34
B7: SMP1913-F09 (antibody, V domains shown)
VH: not shown
VL: B4 VL with L38F
notes: human IgG1, lambda; also called hSP34-Hc1 + SP34-Lc3; hSP34-HC1+hSP34-LC3
B8: SMP1913-F10 (antibody, V domains shown)
VH: not shown
VL: QTVVTQEPSFSVSPGGTVTLTCGSSTGAVTSGYYPNWYQQTPGQAPRGLIGGTKFLAPGVPDRFSGSLLGNKAALTITGAQADDESDYYCALWYSNRWVFGGGTQLTVTG
notes: human IgG1, lambda; also called hSP34-Hc1 + SP34-Lc4
B9: SMP1913-F05 (antibody, V domains shown)
VH: not shown
VL: B8 VL
notes: human IgG1, lambda; also called SP34-Hc + SP34-Lc4
B10: SMP1913-G04 (antibody, human IgG1, lambda, V domains shown)
VH: EVQLLESGGGLVQPGGSLRLSCAASGFTFNKYAMNWVRQAPGKGLEWVARIRSKYNNYATYYADSVKDRFTISRDDSKNTAYLQMNSLRAEDTAVYYCVRHGNFGNSYISYWAYWGQGTLVTVSS
VL: B8 VL
notes: human IgG1, lambda; also called hSP34-Hc2 + SP34-Lc4
B11: SMP1913-F03 (antibody, V domains shown)
VH: not shown
VL: QSAVTQPRSVSGSPGQSVTISCGSSTGAVTSGYYPNWYQQHPGKAPKGMIGGTKFLAPGVPDRFSGSLLGNTASLTISGLQAEDEADYYCALWYSNRWVFGGGTQLTVTG
notes: human IgG1, lambda; also called SP34-Hc + SP34-Lc2
B12: SMP1913-F08 (antibody, V domains shown)
VH: not shown
VL: B11 VL
notes: human IgG1, lambda; also called hSP34-Hc1 + SP34-Lc2
B13: SMP1913-F02 (antibody, V domains shown)
VH: not shown
VL: EIVVTQSPGTLSLSPGERATLSCGSSTGAVTSGYYPNWYQQKPGQAPRGLIGGTKFLAPGIPDRFSGSLLGTDATLTISRLEPEDFAVYYCALWYSNRWVFGQGTKLEIKR
notes: human IgG1, kappa; also called SP34-Hc + SP34-Lc1
B14: SMP1913-F07 (antibody, V domains shown)
VH: not shown
VL: B13 VL
notes: human IgG1, kappa; also called hSP34-Hc1 + SP34-Lc1
B15: SMP1913-G08 (antibody, human IgG1, lambda, V domains shown)
VH: B10 VH with L5V, G16R, A23T, V37F, N79S, T80I, R89K, A90T
VL: B4 VL with L38F
notes: human IgG1, lambda; also called hSP34-Hc3 + SP34-Lc3
B16: SMP1913-G05 (antibody, human IgG1, lambda, V domains shown)
VH: B10 VH with L5V, G16R, A23T, V37F, N79S, T80I, R89K, A90T
VL: not shown
notes: human IgG1, lambda; also called hSP34-Hc3 + SP34-Lc
B17: SMP1913-H02 (antibody, V domains shown)
VH: not shown
VL: B4 VL with L38F
notes: human IgG1, lambda; also called hSP34-Hc4 + SP34-Lc3
B18: SMP1913-F04 (antibody, V domains shown)
VH: not shown
VL: B4 VL with L38F
notes: human IgG1, lambda; also called SP34-Hc + SP34-Lc3

What follows are binders tested against T1, cynomolgus CD3 epsilon (assay: SPR (Biacore), antibody captured, cynomolgus CD3 epsilon analyte).

Row | Binder | Kd [nM] | koff [s⁻¹] | kon [M⁻¹ s⁻¹]
1 | B1 | 0.329 | 0.00034 | 1.03e+06
2 | B2 | 0.371 | 0.000404 | 1.09e+06
3 | B3 | 0.413 | 0.000311 | 753000
4 | B4 | 0.416 | 0.000368 | 884000
5 | B5 | 8.28 | 0.000478 | 57700

The binders below were run against T2, human CD3 on T-cell lines (CD3-expressing Jurkat cells; HUT78 cells) (human, UniProt P07766 23-207) (assay: flow cytometry, HUT78 cells).
T2 construct: On cells it stands in the CD3/TCR complex
T2 sequence (P07766 23-207 limits assumed): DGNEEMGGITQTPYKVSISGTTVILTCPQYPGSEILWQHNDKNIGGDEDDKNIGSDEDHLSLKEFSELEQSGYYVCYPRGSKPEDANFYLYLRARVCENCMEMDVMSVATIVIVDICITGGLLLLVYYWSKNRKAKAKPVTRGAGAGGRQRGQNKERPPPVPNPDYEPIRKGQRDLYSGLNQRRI

Row | Binder | Bmax (MFI) | Kd [nM]
6 | B1 | 1230 | 0.4
7 | B2 | 1240 | 0.6
8 | B3 | 1320 | 0.8
9 | B4 | 1030 | 0.4
10 | B5 | 1200 | 40.7

Molecular target: T2, human CD3 on T-cell lines …
Assay: flow cytometry, HUT78 cells
Remark: another data set of the same source

Row | Binder | Bmax (MFI) | Kd [nM]
11 | B4 | 1040 | 0.15

Molecular target: T2, human CD3 on T-cell lines …
Assay: flow cytometry, HUT78 cells
Remark: another data set of the same source

Row | Binder | HUT78 Bmax | Kd [nM]
12 | B3 | 1780 | 1.6
13 | B4 | 1890 | 2.33
14 | B5 | 1850 | 47

These binders were tested against T1, cynomolgus CD3 epsilon (assay: ELISA, coated antigen).

Row | Binder | EC50 [nM] | ELISA Bmax (RLU)
15 | B6 | 352 | 116000
16 | B7 | 35.6 | 1.57e+06

These binders were tested against CD3-GE (assay: ELISA, coated antigen).

Row | Binder | EC50 [nM] | ELISA Bmax (RLU)
17 | B6 | 574 | 3610
18 | B7 | 1110 | 1.7e+06

What follows are binders tested against T3, human CD3 epsilon (Acro Cat #CDE-H5223) (human, UniProt P07766 23-126) (assay: ELISA, coated antigen).
T3 construct: Bought recombinant protein; also called rhCD3E
T3 sequence (P07766 23-126 limits assumed): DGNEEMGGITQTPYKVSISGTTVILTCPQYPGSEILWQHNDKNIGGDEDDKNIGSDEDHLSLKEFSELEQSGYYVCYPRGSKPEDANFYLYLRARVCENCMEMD

Row | Binder | EC50 [nM] | ELISA Bmax (RLU)
19 | B6 | 251 | 123000
20 | B7 | 28.9 | 1.62e+06

Each binder was assayed against T3, human CD3 epsilon (Acro Cat #CDE-H5223) (assay: SPR (Biacore), antibody captured, human CD3 epsilon analyte).
Protocol: (§1) Anti-Fab or anti-Fc polyclonal antibodies were immobilized onto a CM5 chip (GE Life Sciences) using amine coupling chemistry (from Amine Coupling Kit, GE Life Sciences). The immobilization steps were carried out at a flow rate of 25 μl/min in 1×HBS-EP+ buffer (GE Life Sciences; 10× Stock diluted before use). The sensor surfaces were activated for 7 min with a mixture of NHS (0.05 M) and EDC (0.2 M). The Anti-Fab or Anti-Fc antibodies were injected over all 4 flow cells at a concentration of 25 μg/mL in 10 mM sodium acetate, pH 4.5, for 7 min. Ethanolamine (1 M, pH 8.5) was injected for 7 min to block any remaining activated groups.
(§2) Off-rate and kinetic binding experiments were performed at 25° C. using 1×HBS-EP+ buffer. Test and control antibodies were injected over the anti-Fab or anti-Fc surface at concentrations of 5-10 μg/mL for 12 seconds at a flow rate of 10 μL/min on flow cells 2, 3 and 4, followed by a buffer wash for 30 seconds at the same flow rate. […] After capturing ligand (antibody) on the anti-Fc or anti-Fab surface, the analyte (human CD3 epsilon, Acro Cat #CDE-H5223) was bound for 180 seconds, followed by a 600 second dissociation phase at a flow rate of 50 μL/min. Between each ligand capture and analyte binding cycle, regeneration was carried out using two injections of 10 mM Glycine pH 2.0 for 30 seconds at 30 μL/min, followed by a 30 second buffer wash step.
(§3) The data was fit with the Biacore T200 Evaluation software, using a 1-1 Langmuir binding model. KD (affinity, nM) was determined as a ratio of the kinetic rate constants calculated from the fits of the association and dissociation phases.

Row | Binder | Kd [nM] | koff [s⁻¹] | kon [M⁻¹ s⁻¹]
21 | B4 | 0.465 | 0.000222 | 478000

Molecular target: T3, human CD3 epsilon (Acro Cat #CDE-H5223)
Assay: as above
Remark: another data set of the same source
Protocol: as §1, §2, §3

Row | Binder | Kd [nM] | koff [s⁻¹] | kon [M⁻¹ s⁻¹]
22 | B3 | 1.96 | 0.000479 | 244000
23 | B4 | 2.2 | 0.000564 | 256000

Molecular target: T1, cynomolgus CD3 epsilon
Assay: SPR (Biacore), antibody captured, cynomolgus CD3 epsilon analyte
Remark: another data set of the same source

Row | Binder | Kd [nM] | koff [s⁻¹] | kon [M⁻¹ s⁻¹]
24 | B3 | 0.56 | 0.000375 | 670000
25 | B4 | 0.418 | 0.000344 | 824000

Each binder was assayed against T2, human CD3 on T-cell lines … (assay: flow cytometry; signal on CD3+ Jurkat over CD3- Jurkat RT3-T3.5 cells).
Protocol: A high-throughput primary screen was performed to rapidly assess cell binding of antibodies produced in small-scale (60 μL) cell-free reactions. In this screen, four components are combined in equal volumes to a final volume of 100 μL/well in a U-bottom 96-well plate (Greiner Cat #650201) or flat bottom 384 well plate (Greiner Cat #781201). […] Plates are then incubated on ice for one hour. Cells are pelleted by spinning at 1500×g for 5 minutes and resuspended in assay buffer. High-throughput flow cytometry is then performed on resuspended cells on a FACS instrument (BD Biosciences FACS Canto II or BD Biosciences LSR II) and data is analyzed with FlowJo software. Antibody binding is assessed by the proportional level of secondary antibody signal (presumably due to binding to our antibody of interest) on Jurkat CD3-positive cells compared to the signal on Jurkat RT3.T3.5 CD3-negative cells.

Row | Binder | FACS S/N (Jurkat/Jurkat RT3-T3.5 binding)
26 | B8 | 1
27 | B9 | 0.9
28 | B10 | 1
29 | B11 | 1
30 | B12 | 0.9
31 | B13 | 0.9
32 | B14 | 0.8
33 | B7 | 6.2
34 | B15 | 1
35 | B16 | 0.8
36 | B17 | 1
37 | B18 | 5.1

Molecular target: T3, human CD3 epsilon (Acro Cat #CDE-H5223)
Assay: SPR (Biacore), antibody captured, human CD3 epsilon analyte
Remark: another data set of the same source
Protocol: as §1, §2, §3

Row | Binder | Kd [nM] | koff [s⁻¹] | kon [M⁻¹ s⁻¹]
38 | B1 | 0.511 | 0.000297 | 580000
39 | B2 | 0.464 | 0.000314 | 677000
40 | B3 | 0.648 | 0.000278 | 430000
41 | B4 | 0.596 | 0.000306 | 514000
42 | B5 | 12.2 | 0.000464 | 38200
